The data set in a line: soluble on expression in E. coli; label from the status in PepcDB or PDB records.
As for “MGFSDLRDKVVIVTGASMGIGRAIAERFVDEGSKVIDLSIHDPGEAKYDHIECDVTNPDQVKASIDHIFKEYGSISVLVNNAGIESYGKIESMSMGEWRRIIDVNLFGYYYASKFAIPYMIRSRDPSIVNISSVQASIITKNASAYVTSKHAVIGLTKSIALDYAPLLRCNAVCPATIDTPLVRKAAELEVGSDPMRIEKKISEWGHEHPMQRIGKPQEVASAVAFLASREASFITGTCLYVDGGLSIRAPISTPELEHHHHHH”, the “soluble on expression in E. coli” value is recorded as “soluble”. The result for “MSPRDVLDSIFAFPPNRDTLGGTSYLIVGNEGNILIDCPALDQTNLNFLRSHGGVRWLFLTHRGAIGRTAEIQQNYGCDILIQEQEAYLLPGLTVTTFTQEFAVTPTAKAIWTPGHSPGSSCLYYNHQGGVLFSGRHLLPNQKGEPVPLRTAKTFHWPRQIKSLQTILETLTPETLQYICPGANTGFLRGKRSIDTAYQRLASLDLKALLQTQPLILEHHHHHH” reads “soluble”; that for “AHHHHHHGSEIYEGKAKKMIPLDEDKFIMEFKDDATAFDGVKKAKFVGKGWLNAQISAKLFKLLEDHGIKTHFIGVAGGNRLIVERLEMYPIEVVVRNVVAGSLKKRLPLPEGYELPEPIVELYYKSDELHDPMINYYHARILGISEEEIKEMERIALKVNEILKKFFREKGIILVDFKLEFGKNKKGEIVLADEISPDTCRFWDVETKKSLDKDVFRFDKGDLIEAYKELYKRLIGEEPQI”, “not soluble”.

As for “EDRVGERRIMIDKKEAIEHFRRHPGDGMIKLDLLTTAYNDINLIPPIYQPFLQDKQYFLGEVGQEPNTRMIYMSTFNQNGEEHPIILISLIDEIEITSTE”, the “soluble on expression in E. coli” value is “not soluble”. The value for “VHPLPADHGRSRCNRHPISPLSLIGNASATSGDMSSMTRIAKPLIKSAMAAGLVTASMSLSTAVAHAGPSPNWDAVAQCESGGNWAANTGNGKYGGLQFKPATWAAFGGVGNPAAASREQQIAVANRVLAEQGLDAWPTCGAASGLPIALWSKPAQGIKQIINEIIWAGIQASIPR” was “not soluble”. The result for “MCGIIGFMSRTGRLISGDRIATALNCLKERGNGEGSGYVGYGIYPDYKDDYAIHVFLDATKDYDRIRHEVEEVLVKYGYILKDEEIPTEEGIIKQEQVSWRFFYRFDEKYKTVEEDLMVDIVMDINAKIDGAFVFSSGKNMGVFKAAAWPLEVAEYFKIDQYKGFQWLSHARYPTNTKGWWGGAHPFNLLGWSVVHNGEITSYGANKRYVESFGYKCKLLTDTEVVAYLFDLLIRKHKIPVEYAMSALAPRFWDEIEIMSEEDKKIHEAIRMTYGGATMNGPFGIVVGTQEGMVFMNGEVEEGNTMVGLTDRIKLRPLVAAEKDDLLFVSSEESAIRKICPELDRVWMPDAGRMVIAKLEKKI” reads “not soluble”; that for “AAVEDNHLLIKAVQNEDVDLVQQLLEGGANVNFQEEEGGWTPLHNAVQMSREDIVELLLRHGADPVLRKKNGATPFLLAAIAGSVKLLKLFLSKGADVNECDFYGFTAFMEAAVYGKVKALKFLYKRGANVNLRRKTKEDQERLRKGGATALMDAAEKGHVEVLKILLDEMGADVNACDNMGRNALIHALLSSDDSDVEAITHLLLDHGADVNVRGERGKTPLILAVEKKHLGLVQRLLEQEHIEINDTDSDGKTALLLAVELKLKKIAELLCKRGASTDCGDLV”, “soluble”. The result for “MKANKVLFITQEITPYVPESEMANMGRFLPQAIQEKGREIRTFMPKWGNVNERRNQLHEVIRLSGMNLIIDDTDHPLIIKVASIQAARMQVYFIDNDDYFQHRQMVADENGVEYKDNDERAIFYARGVLETVKKLRWCPDIIHCQGWMSAFVPLYIKKAYQDEPSFRDSKVVFSVFEDDFKSDCEGNLTEKLMLKGIEKNDVESIVKSPANYEELCKLAIAYSDGVIQNSEKVNENVMKFARESGVPVLDYQPADTYVDAFNEFYDKVWEFEKK” reads “not soluble”; that for “MISNIFKISAALLLLTIVSEAKPCFGRCGGRPPPPCGLPPFLEDLPSDVQTKITEIWKDYKEGDKCYEEQGLTREIMESLPKDVRKSIHKRPPLPFLRGLPKDILAKFDAIFKDKSIPFSEKPEKIDALAQEVLTGDNLKKFQEFKEKKEKEMQEYKDKESKLSAAAKVANEKLEALGKQKFAILEELDENVKDELFDLWKSRPHGPPRHH”, “not soluble”; that for “MGSSHHHHHHSSGLVPRGSHMANVAIIGTEKSGRTSLAANLGKKGTSSDITMYNNDKEGRNMVFVDAHSYPKTLKSLITALNISDIAVLCIPPQGLDAHTGECIIALDLLGFKHGIIALTRSDSTHMHAIDELKAKLKVITSGTVLQDWECISLNTNKSAKNPFEGVDELKARINEVAEKIEAENAELNSLPARIFIDHAFNVTGKGCVVLGVVKQGISKDKDKTKIFPLDRDIEIRSIQSHDVDIDSAPAGTRVGMRLKNVQAKDIERGFIISDKEIVTTDYTLECTVSKFTKKIEPASVLHLFVGLQSEPVRVEKILVDGNEVEEAKPGSTCVLELSGNKKLAYSKQDRFLLANLDLTQRFAAYGFSK”, “soluble”. Regarding “MSDTVVASAAVQAPAKTVKSPKAAKTTKVPKAKKPVAHPPYINMVTAAINGLKERKGSSKIAILKYITKNYNVGDQIIKINARLRDTLNKGVVSKALVQSVGTGASGRFRVTEKKAAAAKKPVAKKAATGEKKAKKPVAQKAATGEKKAKKTTATKTKKTADKVKKVKSPKKIAKPTAKKVAKSPAKKSAPKKAAAAKPAKKAVAPKT”, the “soluble on expression in E. coli” value is reported as “soluble”. “MIDRPDTGEGTNYLIVGSDSRAGMSAEEKKKLHTGSAEGKRTDSMMILHTGDNGSTLVSLPRDSDVEIPTFKGSTSGKTYPGTGRHVKLNAAYAEDGPELLVRTIEYNTGLHIDHYVEIGFAGFANIVDSVGGVEMTLDKGFKDTFSGADFKAGKQTLNGEQALAFVRTRHAFAASDLERTKNQQKFLSALAHQVATPSTVLNPFKLYPTLSSGLDTLIVDKDMGLFDLADMFWAMKGVTGGDGTSMNMPISGSSGGNLVWDKAKVKALVNELKNDEKVTVSGNLEHHHHHH”: the “soluble on expression in E. coli” value is given as “soluble”. The result for “MKFNCPLIVVNDINISRKFYEEVLCQKIKYDFGENVVYEGDFSLQLKSHFANMIDIDEKSIKFQSNGFELYFEEDNIEAFLNKLKQNKGINYIHSLLEHPWGQRVIRFYDPDMHIIEVGESMEGVIKRFFNEGMSIDEITKRTQHPLEFVKRVLHYKLTLEHHHHHH” reads “soluble”. Regarding “MGHHHHHHSHMANPKLLGLELSEAEAIGADSARFEELLLQASKELQQAQTTRPESTQIQPQPGFCIKTNSSEGKVFINICHSPSIPPPADVTEEELLQMLEEDQAGFRIPMSLGEPHAELDAKGQGCTAYDVAVNSDFYRRMQNSDFLRELVITIAREGLEDKYNLQLNPEWRMMKNRPFMGSISQQNIRSEQRPRIQELGDLYTPAPGRAESGPEKPHLNLWLEAPDLLLAEIDLPKLDGALGLSLEIGENRLVMGGPQQLYHLDAYIPLQINSHESKAAFHRKRKQLMVAMPLLLVPS”, the “soluble on expression in E. coli” value is given as “not soluble”. The result for “MDIWVNLLSDRLESPNFEFITDFIGGKCVVQKDYLEDEKSQSSSGWLLHVYFRPEEFLDRPFVADIIFRCGTRRREVFSVLLKNDCFFAHMRVKEKTGRLIIAARIRKMLCELDLSKPSGSRQFVVQNFENQLKDGRIFYVNLAKLGQIGGDLFKKWQTVENVQQLSLANETMENRMIEVLMEATAKYDDIVVIRHSFHRLIQLAQTYRMHKLMRVIEENLSETKLMNWDEKILLALQYRMSQLYVQVQRKYLLTPWNILCRIQRLYLSNYAAKSGNASNPYDMIHKNLMQMVMMSDENICIG” reads “not soluble”; that for “MGAAAAMLAAVLLLTPITVPAGYPGAVAPATAACPDAEVVFARGRFEPPGIGTVGNAFVSALRSKVNKNVGVYAVKYPADNQIDVGANDMSAHIQSMANSCPNTRLVPGGYSLGAAVTDVVLAVPTQMWGFTNPLPPGSDEHIAAVALFGNGSQWVGPITNFSPAYNDRTIELCHGDDPVCHPADPNTWEANWPQHLAGAYVSSGMVNQAADFVAGKLQ”, “not soluble”.

The record behind these values is the DeepSol protein solubility set.
